B1: 28 (protein)
chain: STAIAQEGAAPAAILHPEKWPRPATQRLIDPAVEKRVDALLKQLSVEEKVGQVIQGDIGTITPEDLRKYPLGSILAGGNSGPNGDDRAPPKEWLDLADAFYRVSLEKRPGHTPIPVLFGIDAVHGHGNIGSATIFPHNIALGATHDPELLRRIGEVTAVEMAATGIDWTFAPALSVVRDDRWGRTYEGFSEDPEIVAAYSAAIVEGVQGKWGSKDFMAPGRIVASAKHFLADGGTDQGRDQGDARISEDELIRIHNAGYPPAIDAGVLTVMASFSSWQGIKHHGHKQLLTDVLKGQMGFNGFIVGDWNAHDQVPGCTKFNCPTSLIAGLDMYMAADSWKQLYENTLAQVKDGTIPMARLDDAVRRILRVKVLAGLFEKPAPKDRPGLPGLETLGSPEHRAVGREAVRKSLVLLKNDKGTLPLSPKARVLVAGDGADNIGKQSGGWTISWQGTGNRNDEFPGATSILGGIRDAVADAGGSVEFDVAGQYKTKPDVAIVVFGEEPYAEFQGDVETLEYQPDQKQDLALLKKLKDQGIPVVAVFLSGRPMWVNPELNASDAFVAAWLPGTEGGGVADVLFTDKAGKVQHDFAGKLSYSWPRTAAQTTVNRGDADYNPLFAYGYGLTYKDKSKVGTLPEESGVPAEARQNAGIYFRAGALRLPGRFL
B2: 33 (protein)
chain: STAIAQEGAAPAAILHPEKWPRPATQRLIDPAVEKRVDALLKQLSVEEKVGQVIQGDIGTITPEDLRKYPLGSILAGGNSGPNGDDRAPPKEWLDLADAFYRVSLEKRPGHTPIPVLFGIDAVHGHGNIGSATIFPHNIALGATHDPELLRRIGEVTAREMAATGIDWTFAPALSVVRDDRWGRTYEGFSEDPEIVAAYSAAIVEGVQGKFGSKDFMAPGRIVASAKHFLADGGTDQGRDQGDARISEDELIRIHNAGYPPAIDAGVLTVMASFSSWQGIKHHGHKQLLTDVLKGQMGFNGFIVGDWNAHDQVPGCTKFNCPTSLIAGLDMYMAADSWKQLYENTLAQVKDGTIPMARLDDAVRRILRVKVLAGLFEKPAPKDRPGLPGLETLGSPEHRAVGREAVRKSLVLLKNDKGTLPLSPKARVLVAGDGADNIGKQSGGWTISWQGTGNRNDEFPGATSILGGIRDAVADAGGSVEFDVAGQYKTKPDVAIVVFGEEPYAEFQGDVETLEYQPDQKQDLALLKKLKDQGIPVVAVFLSGRPMWVNPELNASDAFVAAWLPGTEGGGVADVLFTDKAGKVQHDFAGKLSYSWPRTAAQTTVNRGDADYNPLFAYGYGLTYKDKSKVGTLPEESGVPAEARQNAGIYFRAGALRLPGRFL
B3: 30 (protein)
chain: STAIAQEGAAPAAILHPEKWPRPATQRLIDPAVEKRVDALLKQLSVEEKVGQVIQGDIGTITPEDLRKYPLGSILAGGNSGPNGDDRAPPKEWLDLADAFYRVSLEKRPGHTPIPVLFGIDAVHGHGNIGSATIFPHNIALGATHDPELLRRIGDVTAVEMAATGIDWTFAPALSVVRDDRWGRTYEGFSEDPEIVAAYSAAIVEGVQGKFGSKDFMAPGRIVASAKHFLADGGTDQGRDQGDARISEDELIRIHNAGYPPAIDAGVLTVMASFSSWQGIKHHGHKQLLTDVLKGQMGFNGFIVGDWNAHDQVPGCTKFNCPTSLIAGLDMYMAADSWKQLYENTLAQVKDGTIPMARLDDAVRRILRVKVLAGLFEKPAPKDRPGLPGLETLGSPEHRAVGREAVRKSLVLLKNDKGTLPLSPKARVLVAGDGADNIGKQSGGWTISWQGTGNRNDEFPGATSILGGIRDAVADAGGSVEFDVAGQYKTKPDVAIVVFGEEPYAEFQGDVETLEYQPDQKQDLALLKKLKDQGIPVVAVFLSGRPMWVNPELNASDAFVAAWLPGTEGGGVADVLFTDKAGKVQHDFAGKLSYSWPRTAAQTTVNRGDADYNPLFAYGYGLTYKDKSKVGTLPEESGVPAEARQNAGIYFRAGALRLPGRFL
B4: 29 (protein)
chain: STAIAQEGAAPAAILHPEKWPRPATQRLIDPAVEKRVDALLKQLSVEEKVGQVIQGDIGTITPEDLRKYPLGSILAGGNSGPNGDDRAPPKEWLDLADAFYRVSLEKRPGHTPIPVLFGIDAVHGHGNIGSATIFPHNIALGATHDPELLRRIGEVTAVEMAATGIDWTFAPALSVVRDDRWGRTYEGFSEDPEIVAAYSPAIVEGVQGKFGSKDFMAPGRIVASAKHFLADGGTDQGRDQGDARISEDELIRIHNAGYPPAIDAGVLTVMASFSSWQGIKHHGHKQLLTDVLKGQMGFNGFIVGDWNAHDQVPGCTKFNCPTSLIAGLDMYMAADSWKQLYENTLAQVKDGTIPMARLDDAVRRILRVKVLAGLFEKPAPKDRPGLPGLETLGSPEHRAVGREAVRKSLVLLKNDKGTLPLSPKARVLVAGDGADNIGKQSGGWTISWQGTGNRNDEFPGATSILGGIRDAVADAGGSVEFDVAGQYKTKPDVAIVVFGEEPYAEFQGDVETLEYQPDQKQDLALLKKLKDQGIPVVAVFLSGRPMWVNPELNASDAFVAAWLPGTEGGGVADVLFTDKAGKVQHDFAGKLSYSWPRTAAQTTVNRGDADYNPLFAYGYGLTYKDKSKVGTLPEESGVPAEARQNAGIYFRAGALRLPGRFL
B5: 32 (protein)
chain: STAIAQEGAAPAAILHPEKWPRPATQRLIDPAVEKRVDALLKQLSVEEKVGQVIQGDIGTITPEDLRKYPLGSILAGGNSGPNGDDRAPPKEWLDLADAFYRVSLEKRPGHTPIPVLFGIDAVHGHGNIGSATIFPHNIALGATHDPELLRRIGEVTAVEMAATGIDWTFAPALSVVRDDRWGRTYEGFSEDPEIVAAYSAAIVEGVQGKFGSKDFMAPGRGVASAKHFLADGGTDQGRDQGDARISEDELIRIHNAGYPPAIDAGVLTVMASFSSWQGIKHHGHKQLLTDVLKGQMGFNGFIVGDWNAHDQVPGCTKFNCPTSLIAGLDMYMAADSWKQLYENTLAQVKDGTIPMARLDDAVRRILRVKVLAGLFEKPAPKDRPGLPGLETLGSPEHRAVGREAVRKSLVLLKNDKGTLPLSPKARVLVAGDGADNIGKQSGGWTISWQGTGNRNDEFPGATSILGGIRDAVADAGGSVEFDVAGQYKTKPDVAIVVFGEEPYAEFQGDVETLEYQPDQKQDLALLKKLKDQGIPVVAVFLSGRPMWVNPELNASDAFVAAWLPGTEGGGVADVLFTDKAGKVQHDFAGKLSYSWPRTAAQTTVNRGDADYNPLFAYGYGLTYKDKSKVGTLPEESGVPAEARQNAGIYFRAGALRLPGRFL
B6: 31 (protein)
chain: STAIAQEGAAPAAILHPEKWPRPATQRLIDPAVEKRVDALLKQLSVEEKVGQVIQGDIGTITPEDLRKYPLGSILAGGNSGPNGDDRAPPKEWLDLADAFYRVSLEKRPGHTPIPVLFGIDAVHGHGNIGSATIFPHNIALGATHDPELLRRIGEVTAVEMAATGIDWTFAPALSVVRDDRWGRTYEGFSEDPEIVAQYSAAIVEGVQGKFGSKDFMAPGRIVASAKHFLADGGTDQGRDQGDARISEDELIRIHNAGYPPAIDAGVLTVMASFSSWQGIKHHGHKQLLTDVLKGQMGFNGFIVGDWNAHDQVPGCTKFNCPTSLIAGLDMYMAADSWKQLYENTLAQVKDGTIPMARLDDAVRRILRVKVLAGLFEKPAPKDRPGLPGLETLGSPEHRAVGREAVRKSLVLLKNDKGTLPLSPKARVLVAGDGADNIGKQSGGWTISWQGTGNRNDEFPGATSILGGIRDAVADAGGSVEFDVAGQYKTKPDVAIVVFGEEPYAEFQGDVETLEYQPDQKQDLALLKKLKDQGIPVVAVFLSGRPMWVNPELNASDAFVAAWLPGTEGGGVADVLFTDKAGKVQHDFAGKLSYSWPRTAAQTTVNRGDADYNPLFAYGYGLTYKDKSKVGTLPEESGVPAEARQNAGIYFRAGALRLPGRFL

This data set is described as follows: High throughput cellobiose assay: fold improvement in cellobiase activity of CelA variants over a control enzyme (Tables 2A-2D, 3, 5, 6, 7). The format is biochemical. To be noted: 3.3 g/l cellobiose, 50° C. and pH 6.5; compared to native CelA (SEQ ID NO: 4). As for the experimental part: β-glucosidase activity was also determined using a cellobiose assay, which used cellobiose as substrate. In a total volume of 100 μL, 25 μL clear media supernatant containing CelA enzyme was added to 10 g/L cellobiose (Fluka Cat. No. 22150, Sigma-Aldrich, Inc., St. Louis, Mo.) in 100 mM sodium phosphate buffer (pH 6-7) or sodium acetate buffer (pH 5-5.5). The reaction was incubated at 45-70° C. for an appropriate time (25 minutes to overnight depending on the enzyme concentration) while shaking. Glucose production was determined using an enzymatic glucose assay (K-GLUC, Megazyme, Ireland). 10 μl of each reaction was added to 190 μl GOPOD reagent (supplied as part of the K-GLUC assay kit). The reaction was incubated at 45° C. for 20 minutes and the absorbance of the solution was measured at 510 nm. The GOPOD reagent contains 50 mM Potassium phosphate buffer pH7.4, 0.011M p-hydroxybenzoic acid, 0.008% w/v sodium azide, glucose oxidase (>12,000 U/L), peroxidase (>650 U/L) and 80 mg/L 4-aminoantipyrine. The glucose oxidase enzyme in the reagent reacts with any glucose present in the sample and produces hydrogen peroxide which then reacts with the 4-aminoantipyrine to produce a quinoneimine dye in quantities proportionate with the amount of glucose present and can be measured spectrophotometrically at 510 nm. Detectable β-glucosidase activity was observed under high throughput screening conditions (i.e., pH 7, 50° C.).
Plasmid libraries containing variant CelA genes were transformed into B. megaterium and plated on Luria-Bertani (LB) agar plates containing 3 μg/mL tetracycline with a DM3 regeneration media overlay (400 mM sodium succinate dibasic, pH 7.3, 0.5% casamino acids, 0.5% yeast extract, 0.4% K2HPO4, 0.2% KH2PO4, 20 mM MgCl2, 0.5% glucose and 0.2% BSA). After incubation for at least 18 hours at 30° C., colonies were picked using a Q-bot® robotic colony picker (Genetix USA, Inc., Beaverton, Oreg.) into shallow, 96-well well microtiter plates containing 180 μL, LB and 10 μg/mL tetracycline. Cells were grown overnight at 37° C. with shaking at 200 rpm and 85% humidity. 10 μL of this culture was then transferred into 96-well microtiter plates (deep well) containing 390 μL A5-glucose-xylose medium and 10 μg/mL tetracycline as described in example 2. The plates were then incubated at 37° C. with shaking at 250 rpm and 85% humidity overnight (˜18-24 hours). The deep plates were centrifuged at 4000 rpm for 15 minutes and the clear media supernatant containing the secreted CelA enzyme was used for the high throughput pNPG or cellobiose assay of Example 5.
The CelA libraries were screened in high throughput using the cellobiose assay of Example 5 (Substrate: cellobiose; pH: 5-7; temperature: 45-72° C.; time: 2-24 hrs) for the identification of improved variants.
In shallow, 96-well microtiter plates 25 μL of media supernatant was added to 75 μL of […] cellobiose in 150 mM sodium acetate buffer pH 5-5.5 or 150 mM sodium phosphate buffer pH6-7. After sealing with aluminum/polypropylene laminate heat seal tape (Velocity 11 (Menlo Park, Calif.), Cat#06643-001), the plates were shaken at 45-65° C. for up to 24 hrs. The plates were centrifuged for 5 minutes at 4000 rpm. In shallow well clear microtiter plates, 10 μL of the reaction mixture was added to 190 μL of GOPOD reagent (as in example 5B) per well. The solutions were incubated at 45° C. for 1 hour and absorbance was measured at 510 nm for the identification of active CelA variants.
Improved CelA variants were identified from the high throughput screening of various CelA variant libraries as described in Example 7, using the cellobiose assay of Example 5 using 3.3 g/l cellobiose at temperatures from 50°-55° C. at a pH in the range of 5.3-6.5. Tables 2A, 2B, 2C, and 2D and Table 3 depict the improvement in activities of CelA variants encompassed by the invention. The assay conditions are indicated in each table. […]
Consider B1, for which the “Fold improvement over wildtype CelA” value is “++ (++ = 2.1 to 2.6 fold improvement over native CelA (SEQ ID NO: 4))”.

In the case of B2, the “Fold improvement over wildtype CelA” value is on record as “+ (+ = 1.1 to 2.0 fold improvement over native CelA (SEQ ID NO: 4))”. Regarding B3, the “Fold improvement over wildtype CelA” value is on record as “+ (+ = 1.1 to 2.0 fold improvement over native CelA (SEQ ID NO: 4))”. With B4, the “Fold improvement over wildtype CelA” value is on record as “++ (++ = 2.1 to 2.6 fold improvement over native CelA (SEQ ID NO: 4))”. Then B5, with “+ (+ = 1.1 to 2.0 fold improvement over native CelA (SEQ ID NO: 4))”; and B6, with “+ (+ = 1.1 to 2.0 fold improvement over native CelA (SEQ ID NO: 4))”.

Source of the values: patent US8357523B2, “Beta-glucosidase variant enzymes and related polynucleotides” (Codexis, Inc., priority 2009, dated 2013).
